# Data reported in publication PMC4951694.
# Assays:
# Experiment in all cases: ITC; 10 μM β3 peptide in the sample cell titrated with αIIb peptide; bicelles of 43 mM DHPC, 17 mM POPC, 25 mM NaH2PO4/Na2HPO4 pH 7.4, 28 °C; stoichiometry fixed at 1:1
# [1] = molecular target: integrin β3(W715Y) TM peptide (human) (UniProt P05106)
# [2] = molecular target: integrin β3(A711P) TM peptide (human) (UniProt P05106)
# [3] = molecular target: integrin β3(A711P/L712A) TM peptide (human) (UniProt P05106)
# [4] = molecular target: integrin β3(L712A) TM peptide (human) (UniProt P05106)
# [5] = molecular target: integrin β3(A711P/W715Y) TM peptide (human) (UniProt P05106)
# [6] = molecular target: integrin β3 TM peptide (human) (UniProt P05106)
KXY [1],dH [1] [kcal/mol],KXY [2],dH [2] [kcal/mol],KXY [3],dH [3] [kcal/mol],KXY [4],dH [4] [kcal/mol],KXY [5],dH [5] [kcal/mol],KXY [6],dH [6] [kcal/mol],Substance
1300,-14.2,12700,-16.9,4200,-12.8,1900,-12,2200,-14.4,,,integrin αIIb TM peptide (from UniProt P08514 989-1029)
,,4000,-5.6,,,,,,,,,integrin αIIb(R995A) TM peptide (from UniProt P08514 989-1029)
,,5500,-16.2,,,,,,,1080,-14.2,integrin αIIb(G972A) TM peptide (from UniProt P08514 989-1029)
